# Assay results published in article doi:10.1101/2022.05.18.492574.
# Molecular target: GyrA14 (UniProt P0AES4)
# Test: SEC-MALS
substance,measurement,value
GyrA14 (from UniProt P0AES4 363-494) (domain or fragment),stoichiometry N,2
